We go through two molecules from patent US20130034559A1 (AstraZeneca / MedImmune, published 2013).

The IC50 is the concentration needed to halve the response being measured.

In assay [1] the target is T1, mouse B7-H1 on J558 cells (mouse, UniProt Q9EP73 19-290).
T1 construct: whole, on cells
In words: FACS on J558 cells expressing mouse B7-H1. As to the method: (§1) The ability of the purified antibodies to bind to human B7-H1, B7-DC, mouse B7H1 and cynomolgus monkey B7-H1 was determined by FACS analysis. […] Mouse J558 cells expressing mouse B7-H1 were obtained from ATCC (catalog #TIB-6). Cells were resuspended in PBS containing 2% FBS (FACS buffer) and seeded at 50000 cells/well into V-bottomed plates. Anti-B7-H1 and isotype control antibodies diluted in FACS buffer were added at a final concentration of 5 μg/ml and plates were incubated for 1 h at 4° C. […] Mouse anti-human B7-DC (PD-L2) antibody (R&D systems cat #MAB1224, detected with goat anti-mouse Fc Cy5, Jackson Immunoresearch) was used as a positive control for B7-DC expression. PE-conjugated rat anti-mouse B7-H1 antibody (eBioscience, clone M1H5, detected with goat anti-rat Fc Cy5, Jackson Immunoresearch) was used as a positive control for mouse B7-H1 expression.

Assay [2] concerns the target T2, human B7-DC on 293T cells (human, UniProt Q9BQ51 20-273).
T2 construct: whole, on cells; also called PD-L2
T2 sequence (looked up): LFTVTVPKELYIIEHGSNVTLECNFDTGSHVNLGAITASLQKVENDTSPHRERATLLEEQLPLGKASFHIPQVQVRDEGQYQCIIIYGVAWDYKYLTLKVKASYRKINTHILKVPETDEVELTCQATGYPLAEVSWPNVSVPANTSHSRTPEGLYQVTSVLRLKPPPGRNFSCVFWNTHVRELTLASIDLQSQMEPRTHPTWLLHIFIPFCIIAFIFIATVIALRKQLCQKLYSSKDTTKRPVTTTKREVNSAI
In words: FACS on 293T cells transfected with human B7-DC. How it is done:
as §1

Assay [3] addresses T3, human B7-H1 expressed on cells (human, UniProt Q9NZQ7 19-290).
T3 construct: whole, on cells; also called PD-L1; huB7-H1
In words: FACS, 1 µg/ml antibody, anti-CD3-activated human T cells. How it is done:
96-well high binding plates were incubated with 100 μl/well of anti-CD3 antibody diluted at 1 ug/ml in PBS (OKT3 clone, eBioscience, catalog #160037) at 4 C overnight. Human T cells were isolated from frozen leukopack using T cell enrichment kit (StemCell Technologies, catalog #19051). Anti-CD3 mAb coated plates were washed with PBS and purified T cells were added in 200 ul of ICM media at 360000 cells/well and cultured for 72 hours. T cells were then harvested, washed in FACS buffer and mixed with diluted purified anti-B7-H1 antibodies or irrelevant human IgG2 or IgG4 antibodies at final concentration of 1 ug/ml in 96-well V-bottom assay plate (50 ul/well). […] Cells were incubated for 30 min at 4° C. before being washed again with FACS buffer and being read on a FACSCalibur instrument. Live lymphocyte population was selected for analysis based on forward and side scatter as well as negative staining for 7-AAD.

In assay [4] the target is T1, mouse B7-H1 on J558 cells. In words: FACS, 5 µg/ml antibody, J558 cells expressing mouse B7-H1. As to the method:
as §1
Background: In flow cytometry, cells or beads pass a laser one at a time.

The target in assay [5] is T3, human B7-H1 expressed on cells. The assay can be described thus: FMAT, hybridoma supernatant, 293T cells expressing human B7-H1. As to the method: (§2) Immediately after plating, 10 μl/well of hybridoma supernatants were added and plates incubated for 1.5 hr at room temperature.
The target of assay [6] is T2, human B7-DC on 293T cells. The assay can be described thus: FACS, 5 µg/ml antibody, 293T cells transfected with human B7-DC. How it is done:
as §1

Assay [7] addresses T3, human B7-H1 expressed on cells. In words: FACS, 5 µg/ml antibody, 293T cells transfected with human B7-H1. As to the method: as §1
The target of assay [8] is T4, cynomolgus monkey B7-H1 expressed on cells (cynomolgus monkey, UniProt G7PSE7 19-290).
T4 construct: whole, on cells; also called cyno B7-H1; cynomologus B7-H1
T4 sequence (G7PSE7 entry or part of it): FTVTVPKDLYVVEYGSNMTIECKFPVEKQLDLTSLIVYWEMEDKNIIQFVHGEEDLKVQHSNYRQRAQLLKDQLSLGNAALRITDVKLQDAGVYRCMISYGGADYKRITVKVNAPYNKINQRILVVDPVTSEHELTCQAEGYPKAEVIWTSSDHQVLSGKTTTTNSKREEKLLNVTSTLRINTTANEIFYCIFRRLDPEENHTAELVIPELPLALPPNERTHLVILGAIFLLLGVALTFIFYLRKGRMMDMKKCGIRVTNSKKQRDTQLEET
In words: FACS, 1 µg/ml antibody, anti-CD3-activated cynomolgus monkey T cells. How it is done:
For activation of cynomolgus monkey T cells 96-well high binding plates were incubated with 100 μl/well of goat anti-mouse IgG Fc antibody diluted at 1 ug/ml in PBS at 4 C overnight. […] Cynomolgus monkey PBMC were isolated from peripheral blood (Bioreclamation, catalog #CYNWBCPT). Anti-CD3 mAb coated plates were washed with PBS and isolated PBMC were added in 200 ul of ICM media at ˜200000 cells/well and cultured for 72 hours. Cells were then harvested, washed in FACS buffer and mixed with diluted purified anti-B7-H1 antibodies or irrelevant human IgG2 or IgG4 antibodies at a final concentration of 1 ug/ml in 96-well V-bottom assay plate (50 ul/well). […] Cells were incubated for 1 hour at 4° C. before being washed again with FACS buffer and being read on a FACSCalibur instrument. Monkey T lymphocyte population was selected for analysis based on forward and side scatter as well as positive staining for CD3 marker and negative staining for 7-AAD.

The target in assay [9] is T4, cynomolgus monkey B7-H1 expressed on …. In words: FMAT, hybridoma supernatant, 293T cells expressing cynomolgus monkey B7-H1. How it is done: as §2
Assay [10] concerns the target T3, human B7-H1 expressed on cells. In words: FACS competition: inhibition of biotinylated PD-1/Fc (10 ug/ml) binding to human B7-H1 on ES-2 cells. How it is done: Briefly, 50000 cells/well were plated in 50 μl of PBS into wells of a 384-well tissue culture plate (Corning Costar, catalog #3712). Next, 50 μl/well of a diluted monoclonal antibody was added at final concentration of […], 0.00016 nM and plates were incubated at 4 C for 1 hour. […] Cells were washed once and 100 μl/well of Cy5-conjugated streptavidin was added and plates were incubated at 4 C for 15 min before being washed again with PBS containing 2% FCS and being read on a FACSCalibur instrument.

Assay [11] shares this target. In words: cell ELISA: biotinylated PD-1/Fc (1.25 ug/ml) on CHO-huB7-H1 cells after hybridoma supernatant (1:5); 0% = 100% inhibition. As to the method:
25000 cells/well were plated in 50 μl of media into wells of a 384-well tissue culture plate (Corning Costar, catalog #3712). Next day, 50 μl/well of diluted (1:5) hybridoma supernatant was added and plates were incubated at 4 C for 1 hour on a shaker. […] Cells were washed and fixed in 100 ul of PBS containing 3.7% formaldehyde and 3% bovine serum albumin for 20 min at room temperature. Cells were washed and incubated in 100 ul of PBS containing 0.6% H2O2 and 3% bovine serum albumin for 10 min at room temperature. Cells were washed and incubated in 50 μl of horseradish peroxidase-conjugated streptavidin diluted at 1:4000 for 30 min at 4° C. Cells were washed before signal detection.
On the technique in general: ELISA stands for enzyme-linked immunosorbent assay.

The target of assay [12] is T5, human PD-1/Fc protein (R&D Systems, catalog #1086-PD) (human, UniProt Q15116 25-170).
T5 construct: extracellular domain; Bought; not shown: Fc portion
T5 sequence (Q15116 25-170): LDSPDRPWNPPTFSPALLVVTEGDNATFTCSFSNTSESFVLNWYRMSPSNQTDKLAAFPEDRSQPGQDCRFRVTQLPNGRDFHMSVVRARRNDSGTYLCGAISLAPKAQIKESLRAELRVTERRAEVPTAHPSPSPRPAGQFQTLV
In words: ELISA, biotinylated IgG1-TM on coated ECD. As to the method: (§3) ELISAs were performed to determine the cross-reactivity of the anti-B7-H1 IgG1-TM antibodies for other immune co-modulatory molecules. […] Murine cross reactivity was also investigated by coating the ECD of murine B7-H1 (R&D Systems, 1019-B7). Biotinylated anti-B7-H1 IgG1-TM diluted at 100 nM in PBS containing 3% dried milk powder, were incubated at room temperature for 2 h to allow binding. Bound biotinylated IgGs were detected with europium N1-labelled streptavidin (Perkin Elmer, 1244-360) at 0.2 ug/mL. […] Primary antibodies were incubated at 5 ug/mL in PBS containing 3% dried milk powder for 2 h at room temperature. Detection was carried out by incubating the secondary antibody anti-mouse IgG Peroxidase conjugate (Sigma, A2554) or anti-rat IgG Peroxidase conjugate (Sigma, A5795) diluted 1:5000 in PBS containing 3% dried milk powder for 1 h at room temperature and subsequent addition of TMB (Sigma, T0440). […] Non-specific binding was determined using wells coated with the IgG1 isotype control at 5 ug/mL. Cross reactivities were calculated at a percent of the specific binding to the antigen relative to human B7-H1.

The target of assay [13] is T6, extracellular domain of human PD-L2 (R&D Systems, 1224-PL) (human, UniProt Q9BQ51 20-220).
T6 construct: extracellular domain; Bought
T6 sequence (looked up): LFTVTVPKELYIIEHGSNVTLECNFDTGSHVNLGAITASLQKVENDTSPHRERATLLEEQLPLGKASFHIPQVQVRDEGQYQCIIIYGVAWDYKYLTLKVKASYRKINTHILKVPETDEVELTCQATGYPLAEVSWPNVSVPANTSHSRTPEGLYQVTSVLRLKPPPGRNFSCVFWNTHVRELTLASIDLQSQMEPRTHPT
The assay can be described thus: ELISA, biotinylated IgG1-TM on coated ECD. As to the method:
as §3

The target in assay [14] is T7, extracellular domain of human B7-H2 (R&D Systems, 165-B7) (human, UniProt O75144 19-256).
T7 construct: extracellular domain; Bought
T7 sequence (looked up): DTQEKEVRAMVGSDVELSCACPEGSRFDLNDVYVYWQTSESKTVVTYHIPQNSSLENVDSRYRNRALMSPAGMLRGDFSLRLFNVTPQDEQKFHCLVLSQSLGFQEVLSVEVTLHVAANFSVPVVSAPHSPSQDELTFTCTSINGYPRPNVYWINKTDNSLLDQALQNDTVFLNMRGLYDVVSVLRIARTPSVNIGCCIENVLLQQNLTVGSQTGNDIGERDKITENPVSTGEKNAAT
The assay can be described thus: ELISA, biotinylated IgG1-TM on coated ECD. How it is done: as §3

Assay [15] has as its target T8, extracellular domain of human CD28 (R&D Systems, 342-CD) (human, UniProt P10747 19-152).
T8 construct: extracellular domain; Bought
The assay can be described thus: ELISA, biotinylated IgG1-TM on coated ECD. How it is done:
as §3

The target of assay [16] is T9, extracellular domain of human CTLA-4 (R&D Systems, 325-CT) (human, UniProt P16410 36-161).
T9 construct: extracellular domain; Bought
T9 sequence (looked up): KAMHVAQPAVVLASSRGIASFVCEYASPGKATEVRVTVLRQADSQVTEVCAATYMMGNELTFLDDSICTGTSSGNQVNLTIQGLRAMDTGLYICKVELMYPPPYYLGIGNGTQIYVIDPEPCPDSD
In words: ELISA, biotinylated IgG1-TM on coated ECD. How it is done: as §3

Assay [17] concerns the target T10, extracellular domain of murine B7-H1 (R&D Systems, 1019-B7) (murine, UniProt Q9EP73 19-239).
T10 construct: extracellular domain; Bought
The assay can be described thus: ELISA, biotinylated IgG1-TM on coated murine B7-H1 ECD. How it is done: as §3

T3 sequence (Q9NZQ7 19-290): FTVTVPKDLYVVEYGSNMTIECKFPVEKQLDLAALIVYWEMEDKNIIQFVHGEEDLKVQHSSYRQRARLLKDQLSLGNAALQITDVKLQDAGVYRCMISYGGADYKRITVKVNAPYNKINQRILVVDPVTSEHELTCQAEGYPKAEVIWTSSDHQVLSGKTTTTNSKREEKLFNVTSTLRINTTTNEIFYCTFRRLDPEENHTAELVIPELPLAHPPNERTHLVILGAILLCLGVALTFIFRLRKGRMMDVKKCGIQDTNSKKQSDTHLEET
T1 sequence (Q9EP73 19-290): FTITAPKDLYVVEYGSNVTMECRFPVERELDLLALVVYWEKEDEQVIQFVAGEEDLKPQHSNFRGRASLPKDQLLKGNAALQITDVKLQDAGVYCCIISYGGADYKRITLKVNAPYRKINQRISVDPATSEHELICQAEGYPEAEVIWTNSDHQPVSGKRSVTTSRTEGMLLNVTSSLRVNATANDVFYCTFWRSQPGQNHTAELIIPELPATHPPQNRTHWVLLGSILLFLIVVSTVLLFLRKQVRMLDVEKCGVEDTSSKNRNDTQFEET
T8 sequence (P10747 19-152): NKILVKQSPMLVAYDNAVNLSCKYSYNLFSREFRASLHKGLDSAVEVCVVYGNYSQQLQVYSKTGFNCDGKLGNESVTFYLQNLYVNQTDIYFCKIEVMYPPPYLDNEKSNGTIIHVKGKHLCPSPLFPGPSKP
T10 sequence (Q9EP73 19-239): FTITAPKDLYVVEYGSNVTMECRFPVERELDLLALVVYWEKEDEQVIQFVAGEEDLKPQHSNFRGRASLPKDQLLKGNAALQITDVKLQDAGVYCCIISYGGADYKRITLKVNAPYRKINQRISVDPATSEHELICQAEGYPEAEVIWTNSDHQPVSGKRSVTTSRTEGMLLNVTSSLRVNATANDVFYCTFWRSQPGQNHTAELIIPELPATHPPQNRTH

B1: 3.18G1 (antibody, V domains shown)
VH: EVQLLESGGDLVQPGGSLRLSCAASGFTFNSYAMSWVRQAPGKGLEWVSTISGSGGFTFSADSVKGRFTISRDNSKNTLFLQMNSLRVEDSAVYSCAKVLVGFNNGCWDYWGQGTLVTVSS
VL: SYVLTQPPSVSVAPGQTARITCGGNNIGSKSVHWYQQKPGQAPVLVVYDDSDRPSGIPERFSGSNSGNTATLTISRVEAGDEADYYCQVWDSSNDHVVFGGGTKLTVL
notes: also called mAb 3.18G1
For B1, the binding result in [1] and in assay [2] was “no binding (tested: 5 µg/ml)” each time. Moreover, the geo mean is 45 in [3]; 3.2 in assay [4]; 9.7 in assay [6]; 1540 in [7]; 94.6 in [8]. The Count in assay [5] is 21; in [9], 66. For the same molecule, the FL1 worked out at 10900 in assay [5] and 10300 in assay [9]. Moreover, the “FL1 × count” value in assay [5] turned out to be 228000; in assay [9], 682000. This molecule also came in with an IC50 in assay [10] of 140 pM. Moreover, the “PD1-Fc binding to CHO-huB7-H1 cells (% of max)” value in [11] is 5 % of max.

B2: 2.9D10 in the IgG1-TM format (antibody, V domains shown)
VH: EVQLVESGGGLVQPGGSLRLSCAASGFTFSSYWMSWVRQAPGKGLEWVANIKQDGGEQYYVDSVKGRFTISRDNAKNSLYLQMNSLRAEDTAVYYCARDWNYGYYDMDVWGQGTTVTVSS
VL: EIVLTQSPGTLSLSPGERATLSCRASQSVSSNYLAWFQQKPGQAPRLLIFGTSSRATGIPDRFSGSGSGTDFTLTISRLEPEDFAVYYCQQYGSSIFTFGPGTKVDIK
notes: Recombinant human IgG1-TM (IgG1 with L234F, L235E, P331S), kappa; also called 2.9D10 IgG1-TM
Regarding B2, the binding result in [12], in assay [13], in [14], in assay [15], in [16] and in assay [17] was “no binding (tested: 100 nM)” each time.
